Measured values reported in the supplement of paper PMC10724198.
± gives the standard deviation of the averaged measurements.

What was measured:
[1] = system: Saccharomyces cerevisiae; assay: protein stability index of tFT-peptide fusion (C-terminal peptide) (PSI (0-1 scale)); higher = more stable (slower turnover)
Experimental: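 MPS profiling in S. cerevisiae of the tFT-X12 degron library: putative degron peptides plus stable controls, 12 aa, fused to the C-terminus of a sfGFP-mCherry timer. Cells are FACS-sorted into 8 mCherry/sfGFP bins and deep-sequenced. PSI runs from 0 (unstable) to 1 (stable). Backgrounds are wild type, das1Δ and doa10Δ at 30 °C, and wild type, das1Δ, cdc34-1 and cdc53-1 at 37 °C; 2-3 technical replicates each.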

[2] = system: Saccharomyces cerevisiae; assay: as above; conditions: genetic background: wild type; temperature: 30 C
[3] = genetic background: cdc34-1, temperature: 37 C
[4] = genetic background: cdc53-1, temperature: 37 C
[5] = genetic background: das1 deletion, temperature: 30 C
[6] = genetic background: das1 deletion, temperature: 37 C
[7] = genetic background: doa10 deletion, temperature: 30 C
[8] = genetic background: wild type, temperature: 30 C
[9] = genetic background: wild type, temperature: 37 C
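Further: PSI is a weighted mean of sequencing reads over stability bins, variants kept only with over 10 reads, mCherry proximal and sfGFP distal, peptide attached via GGGS linker.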

Sequence	protein stability index [1, 3]	protein stability index [1, 4]	protein stability index [1, 5]	protein stability index [1, 6]	protein stability index [1, 7]	protein stability index [1, 8]	protein stability index [1, 9]	protein stability index [2]
VVRAVLCVCASV	0.4577 ± 0.0025	0.489 ± 0.0069	0.409 ± 0.028	0.518 ± 0.0019	0.387 ± 0.012	0.413 ± 0.021	0.489 ± 0.018	0.45987 ± 0.00039
VVRYGGVIAFRG	0.841 ± 0.065	0.641 ± 0.085	0.547 ± 0.017	0.725 ± 0.029	0.579 ± 0.072	0.691 ± 0.13	0.684 ± 0.13	0.596 ± 0.24
VVWCLLARVLLV	0.332 ± 0.017	0.4 ± 0.02	0.306 ± 0.036	0.46657 ± 0.00033	0.1578 ± 0.00094	0.167 ± 0.019	0.243 ± 0.011	0.218 ± 0.026
VWICPTLFLLFS	0.486 ± 0.03	0.509 ± 0.0088	0.369 ± 0.05	0.544 ± 0.013	0.45736 ± 0.00021	0.374 ± 0.018	0.529 ± 0.0063	0.455 ± 0.014
VYDVSVGVAVVG	0.44 ± 0.018	0.464 ± 0.041	0.34 ± 0.037	0.5196 ± 0.0031	0.291 ± 0.017	0.346 ± 0.025	0.48822 ± 0.00017	0.4567 ± 0.002
VYKSTHKIYILT	0.609 ± 0.011	0.729 ± 0.023	0.53 ± 0.011	0.6774 ± 0.0066	0.318 ± 0.0091	0.364 ± 0.028	0.5493 ± 0.0012	0.45 ± 0.022
VYQAFIFRMSLF	0.529 ± 0.026	0.672 ± 0.0078	0.586 ± 0.019	0.695 ± 0.016	0.147 ± 0.0025	0.159 ± 0.02	0.248 ± 0.0046	0.243 ± 0.068
VYRVTGSWLMWV	0.511 ± 0.059	0.5758 ± 0.0051	0.483 ± 0.021	0.527 ± 0.0078	0.353 ± 0.03	0.357 ± 0.019	0.4879 ± 0.0027	0.434 ± 0.007
VYTVGFVCWLVY	0.203 ± 0.0067	0.27 ± 0.013	0.208 ± 0.021	0.3458 ± 0.0024	0.185 ± 0.014	0.176 ± 0.025	0.323 ± 0.016	0.316 ± 0.026
VYWRGLHLQRLL	0.681 ± 0.036	0.7679 ± 0.0013	0.652 ± 0.033	0.775 ± 0.024	0.26 ± 0.0053	0.29 ± 0.028	0.4753 ± 0.0016	0.418 ± 0.05
WALWGFVFWDWW	0.402 ± 0.049	0.476 ± 0.016	0.377 ± 0.035	0.5133 ± 0.0029	0.3786 ± 0.0011	0.365 ± 0.023	0.501 ± 0.0078	0.497 ± 0.03
WCGLFCRSVFVV	0.28221 ± 0.00025	0.363 ± 0.0043	0.263 ± 0.033	0.406 ± 0.0015	0.0996 ± 0.0021	0.11 ± 0.023	0.108 ± 0.0023	0.158 ± 0.072
WDEVVAIVVCPV	0.436 ± 0.016	0.421 ± 0.0076	0.293 ± 0.036	0.493 ± 0.012	0.242 ± 0.0082	0.3 ± 0.016	0.457 ± 0.015	0.39 ± 0.023
WFALFYFLVSAF	0.189 ± 0.019	0.257 ± 0.01	0.205 ± 0.036	0.316 ± 0.0074	0.157 ± 0.008	0.187 ± 0.0045	0.254 ± 0.0038	0.266 ± 0.011
WFCYFSLYVFLL	0.0995 ± 0.02	0.149 ± 0.0067	0.168 ± 0.027	0.24 ± 0.0052	0.133 ± 0.012	0.105 ± 0.019	0.153 ± 0.026	0.214 ± 0.095
WFFRCLFLLSLF	0.457 ± 0.0083	0.544 ± 0.028	0.517 ± 0.019	0.601 ± 0.011	0.188 ± 0.015	0.178 ± 0.026	0.23 ± 0.025	0.202 ± 0.034
WFIFTITSVAGL	0.0307 ± 0.009	0.0301 ± 0.0014	0.0273 ± 0.0031	0.0442 ± 0.015	0.0226 ± 0.0015	0.0205 ± 0.0016	0.0325 ± 0.011	0.0312 ± 0.023
WFLRLVGAVFAL	0.539 ± 0.012	0.624 ± 0.039	0.528 ± 0.016	0.621 ± 0.018	0.46 ± 0.0085	0.485 ± 0.025	0.551 ± 0.032	0.447 ± 0.027
WFVLYAEVMGFW	0.205 ± 0.041	0.325 ± 0.043	0.241 ± 0.037	0.491 ± 0.09	0.207 ± 0.029	0.231 ± 0.042	0.409 ± 0.024	0.349 ± 0.0052
